Among the data in patent US20250161481A1 (published 2025) are Kd values, retold here.

Assay [1] addresses human Cluster of Differentiation 3 protein (CD3) (human, UniProt P07766 23-207; P09693 23-182; P04234 22-171; P20963 22-164).
Assay [2] has as its target human Cluster of Differentiation 28 protein (CD28) (human, UniProt P10747 19-220).

B1: MX1507 (antibody)
heavy 1: not shown
heavy 2: QVQLVQSGAEVAKPGASVKVSCKASGYTFTRYTMHWVKQAPGQGLEWIGYINPSRGYTNYAQKFQGKATLTTDKSTSTAYMELSSLRSEDTAVYYCARYYDDHYSLDYWGQGTTLTVSSASTKGPSVFPLAPSSKSTSGGTAALGCLVKDYFPEPVTVSWNSGALTSGVHTFPAVLQSSGLYSLSSVVTVPSSSLGTQTYICNVNHKPSNTKVDKKVEPKSCDKTHTCPPCPAPEAAGGPSVFLFPPKPKDTLMISRTPEVTCVVVDVSHEDPEVKFNWYVDGVEVHNAKTKPREEQYNSTYRVVSVLTVLHQDWLNGKEYKCKVSNKALAAPIEKTISKAKGQPREPQVCTLPPSRDELTKNQVSLSCAVKGFYPSDIAVEWESNGQPENNYKTTPPVLDSDGSFFLVSKLTVDKSRWQQGNVFSCSVMHEALHNHYTQKSLSLSPG
light: DIQLTQSPSSLSASVGDRVTITCRASQSISYLNWYQQKPGKSPKRWIYDTSKLASGVPSRFSGSGSGTDYTLTISSMQPEDAATYYCQQWSSNPLTFGGGTKVEIKRTVAAPSVFIFPPSDEQLKSGTASVVCLLNNFYPREAKVQWKVDNALQSGNSQESVTEQDSKDSTYSLSSTLTLSKADYEKHKVYACEVTHQGLSSPVTKSFNRGEC
modifications: engineered C-terminal cysteine of the knob chain, joined by maleimide-thiol reaction to DSPE-PEG2000-maleimide on the LNP surface
The term Kd denotes the concentration at which binding is half-saturated. As for B1, the Kd in assay [1] worked out at 727 nM.

B2: MX1500 (antibody)
chain 1: not shown
chain 2: DIQLTQSPSSLSASVGDRVTITCRASQSISYLNWYQQKPGKSPKRWIYDTSKLASGVPSRFSGSGSGTDYTLTISSMQPEDAATYYCQQWSSNPLTFGGGTKVEIKRTVAAPSVFIFPPSDEQLKSGTASVVCLLNNFYPREAKVQWKVDNALQSGNSQESVTEQDSKDSTYSLSSTLTLSKADYEKHKVYACEVTHQGLSSPVTKSFNRGECGGGGSGGGGSGGGGSGGGGSGGGGSGGGGSGGGGSGGGGSQVQLVQSGAEVAKPGASVKVSCKASGYTFTRYTMHWVKQAPGQGLEWIGYINPSRGYTNYAQKFQGKATLTTDKSTSTAYMELSSLRSEDTAVYYCARYYDDHYSLDYWGQGTTLTVSSASTKGPSVFPLAPSSKSTSGGTAALGCLVKDYFPEPVTVSWNSGALTSGVHTFPAVLQSSGLYSLSSVVTVPSSSLGTQTYICNVNHKPSNTKVDKKVEPKSCDKTHTCPPCPAPEAAGGPSVFLFPPKPKDTLMISRTPEVTCVVVDVSHEDPEVKFNWYVDGVEVHNAKTKPREEQYNSTYRVVSVLTVLHQDWLNGKEYKCKVSNKALAAPIEKTISKAKGQPREPQVCTLPPSRDELTKNQVSLSCAVKGFYPSDIAVEWESNGQPENNYKTTPPVLDSDGSFFLVSKLTVDKSRWQQGNVFSCSVMHEALHNHYTQKSLSLSPG
B2 returned a Kd in assay [1] of 1050 nM.

B3: MX1243 (antibody)
chain 1: not shown
chain 2: DIQLTQSPSSLSASVGDRVTITCRASQSISYLNWYQQKPGKSPKRWIYDTSKLASGVPSRFSGSGSGTDYTLTISSMQPEDAATYYCQQWSSNPLTFGGGTKVEIKGGGGSGGSGSGGGGSASGSGQVQLVQSGAEVAKPGASVKVSCKASGYTFTRYTMHWVKQAPGQGLEWIGYINPSRGYTNYAQKFQGKATLTTDKSTSTAYMELSSLRSEDTAVYYCARYYDDHYSLDYWGQGTTLTVSSASGGSGDKTHTCPPCPAPEAAGGPSVFLFPPKPKDTLMISRTPEVTCVVVDVSHEDPEVKFNWYVDGVEVHNAKTKPREEQYNSTYRVVSVLTVLHQDWLNGKEYKCKVSNKALAAPIEKTISKAKGQPREPQVCTLPPSRDELTKNQVSLSCAVKGFYPSDIAVEWESNGQPENNYKTTPPVLDSDGSFFLVSKLTVDKSRWQQGNVFSCSVMHEALHNHYTQKSLSLSPG
Turning to B3, the values for the Kd in assay [1] and in assay [2] were 6.92 nM and 2.55 nM, respectively.

B4: MX1506 (antibody)
heavy 1: not shown
heavy 2: QVQLVQSGAEVKKPGASVKVSCKASGYTFTSYYIHWVRQAPGQGLEWIGSIYPGNVNTNYNEKFKDRATLTVDTSISTAYMELSRLRSDDTAVYFCTRSHYGLDWNFDVWGQGTTVTVSSASTKGPSVFPLAPSSKSTSGGTAALGCLVKDYFPEPVTVSWNSGALTSGVHTFPAVLQSSGLYSLSSVVTVPSSSLGTQTYICNVNHKPSNTKVDKKVEPKSCDKTHTCPPCPAPEAAGGPSVFLFPPKPKDTLMISRTPEVTCVVVDVSHEDPEVKFNWYVDGVEVHNAKTKPREEQYNSTYRVVSVLTVLHQDWLNGKEYKCKVSNKALAAPIEKTISKAKGQPREPQVCTLPPSRDELTKNQVSLSCAVKGFYPSDIAVEWESNGQPENNYKTTPPVLDSDGSFFLVSKLTVDKSRWQQGNVFSCSVMHEALHNHYTQKSLSLSPG
light: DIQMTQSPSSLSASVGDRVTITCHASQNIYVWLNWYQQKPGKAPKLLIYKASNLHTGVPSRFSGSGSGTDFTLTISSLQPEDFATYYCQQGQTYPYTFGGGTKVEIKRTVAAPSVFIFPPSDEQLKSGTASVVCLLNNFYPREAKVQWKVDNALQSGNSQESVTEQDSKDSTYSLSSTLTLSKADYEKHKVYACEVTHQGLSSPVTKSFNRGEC
modifications: engineered C-terminal cysteine of the knob chain, joined by maleimide-thiol reaction to DSPE-PEG2000-maleimide on the LNP surface
The molecule B4 had a Kd in assay [2] of 1.34 nM.
